Source: the nanobody polyreactivity screen of Harvey et al. (2022)

Assay: yeast display, Sf9 membrane polyspecificity reagent, FACS + sequencing; frameworks hold sequencing errors
Procedure, shortened: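 Polyreactivity labels are assigned by the sorting gate from which each nanobody was recovered. The gates were low and high (top ~1%), set on anti-HA fluorescence for expression and streptavidin fluorescence for reagent binding. Before sorting, galactose-induced (36–48 hours) yeast display cells were stained for 1 hour at 4 °C with 10% biotinylated, detergent-solubilized Sf9 membrane reagent.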

Sequence: QVQLVESGGGLVQAGGSLRLSCAASGFIFEDYAMGWYRQAPGKERELVAAIRSNDDSTYYADSVKGRFTISRDNAKNTVYLQMNSLKPEDTAVYYCAAVRYVHFGYDYWGQGTQVTVSS
- polyreactivity (PSR sort gate): high polyreactivity

Sequence: QVQLVESGGGLVQAGGSLRLSCAASGFTFWLYAMGWYRQAPGKEREFVAAISTSGGSTYADSVKGRFTISRDNAKNTVYLQMNSLKPEDTAVYYCNADPTTTTYRHQYNYWGQGTQVTVSS
- polyreactivity (PSR sort gate): low polyreactivity

Sequence: QVQLVESGGGLVQAGGSLRLSCAASGRIFTRYAMGWSRQAPGKERELVAAISSGGSTYYADSVKGRYTISRDKAKNTVYLQMNSLKPEDTAVYYCAAGTWWWYKFNYWGQGTQVTVSS
- polyreactivity (PSR sort gate): high polyreactivity

Sequence: QDQLVESGGGLVHAGGSLRLSCAASGRTFFVYAMGWYRHAPGKEREMVANINQGGGSTSYADSVKGRFTISRDNAKNNVYLQMNSLKPEDTAVYYCNADHYGIGYDPVPLGFVGYDYWGQGTQVTVSS
- polyreactivity (PSR sort gate): low polyreactivity

Sequence: QVQLVESGGGLVQAGGSLRLSCAASGSIFKDYAMGWYRQAPGKERELVAAITSGGRTNYADSVKGRFTISRDNAKNTVYLQMNSLKPEDTAVYYCAARKGKETLYHSTPPYYYWGQGTQVTVSS
- polyreactivity (PSR sort gate): low polyreactivity

Sequence: QVQLVESGGGLVQAGGSLRLSCAASGSIFHFNAMGWYRQAPGKERELVATITSSGSSTYYADSVKGRFTISRDNAKNTVYLQMNSLKPEDTAVYYCAAGWFWQMDYWGQGTQVTVSS
- polyreactivity (PSR sort gate): low polyreactivity

Sequence: QVQLVESGGGLVQAGGSIRLSCAASGSLFEPYFMGWYRQAPGKERELVAAIRQTGGSTYYADSVKGRFTISRDTAKNTVYLQMNSLKPEDTAVYYCAKDSQTARDFDYWGQGTQGTVSS
- polyreactivity (PSR sort gate): low polyreactivity

Sequence: QVQLVESGGGLVQAGGSLRLSCDASGSIFLVYAMGWYRQAPGKERELVAAITSGGSTNYADSVKGRFTISRDNAKNTVYFQMNSLKPEDTAVYNCAAERGDTAYRKYDYWGQGTQVTVSS
- polyreactivity (PSR sort gate): low polyreactivity

Sequence: QVQLVESGGGLVQAGGSLRLSCAASGSSFGYNAMGWYRQAPGKERELVAAISRSGSTYYADSVKGRFTISRDKAKNTVYLHMNSLKPEDTAVYYCDARLWWTFCEYDYWGQGTQVTVSS
- polyreactivity (PSR sort gate): high polyreactivity

Sequence: QVQVVESGGGLVQAGGSLGLSCAASGFTFGRYARGWYRQAPGKERELVAAISRGGSTYYADSVKGRFTISRDNAMYTDYLQMNSLKTEDTAVYYCNAAGLPTQLYYWGQGTQVTVSS
- polyreactivity (PSR sort gate): high polyreactivity

Sequence: QVQLVESAGGLVQEGGSLRLSCAASGLTFYGNAMGWYRQAPGKERELVAAISSSGGTTSYADSVKGRFTISRDNAKNTVYLQFNSLKPEDTAVYYCAARPSGGYESTRTRDYWGQGTQVTVSS
- polyreactivity (PSR sort gate): low polyreactivity

Sequence: QLQLQESGGGLVQAGGSLRLSCAASGNISVTGFMGWYRQAPGKERELVASIGIGGTTYYADSVKGRFSISRDNAKNTVYLQMNSLKPEDTAVYYCAARYLYYAYSYWGQGTQVTVSS
- polyreactivity (PSR sort gate): low polyreactivity

Sequence: QVQLVESGGGLVQAGGSLRLSCAASGNTFTKYAMGWYIQAPGKERELVAGITRGGSTNYADSVKGRFTISRDNAKNTVYLQMNSLKPEDTAVYYCNARPVYGSRFYSAVRMEYWGQGTPVTVSS
- polyreactivity (PSR sort gate): low polyreactivity

Sequence: KVQLVESGGGLVQAGGSLRISCAASGSTLYRYAMGWYRQAPGKERELVAAISSSGGSTYYADSVKGRFTISRDNAKNTVYLQMNSLKPEDTAVYYCARVAPASGVRWYYYWGQGTQVTVSS
- polyreactivity (PSR sort gate): high polyreactivity

Sequence: QVQLVESGGGLVQAGGSLRLSCAASGRTFKTYAMGWYRQAPGKERELVAAISASGGRTYYADSVKGRFTISRDNAKNTVYLQMNSLKPEDTAVYYCAALGYILNGGDYWGQGTQVTVSS
- polyreactivity (PSR sort gate): high polyreactivity

Sequence: QVQLVESGGGLVQAGGSLRLSCAASGSTFYAYVMGWYRQAPGKERELVAAITSAGSTYYADSVKGRFTISRDNAKNTVYLQMNSLKPEDTAVYYCAAYYIVHSRQTQGFERYDYWGQGTQVTVSS
- polyreactivity (PSR sort gate): low polyreactivity

Sequence: QVQLVESGGGLVQAGGSLRLSCAASGRTFGSYVMGWYRQAPGKERELVATISRRGGTTYYADSVKGRYTISRDNAKNTVYLQMNSLKPEDTAVYYCAAKYFGTRYDYWGQGTQVTVSS
- polyreactivity (PSR sort gate): high polyreactivity

Sequence: QVQLVESGGGLVQAGVSLRLSCAASGRTFSSYAMGWYRQAPRKERELVPGISWRGGRTYYADSVKGRFTISRDNGKNSVYLQMNSLKREDTAVYYCNKVYRTYYGDYRFSGIPRYDYVGQGTQVTVSS
- polyreactivity (PSR sort gate): high polyreactivity

Sequence: QVQLVQSGGGLVQAGGSLRLSCAASGRISIIYAMVWYRQAPGKERELVARISGSGGSTNYADSVKGRFTISRDNAKNTVYLQMNSLKPEDTAVYYCAARHYAVRRSRYPGKLGYYWVQGTQVTVSS
- polyreactivity (PSR sort gate): high polyreactivity

Sequence: QVQLVESGGGLVQAGGSLRLSCAASGSIFYSNKGWYRQAPGKEREFVAAISGSGVRTYYADSVKGRFTISRDNAKNTVYLQMNSLKPEDTAVYYCNAGRRQDYRYIYWGQGTQVTVSS
- polyreactivity (PSR sort gate): high polyreactivity

Sequence: QVQLVESGGGLVQAGGSLRLSCAASGRIFPTNAMGWYRQAPGKERELVASITRSGSTYYADSVKGRFTISRDNAKNTVYLQMNSLKPEDTAVYYCAKRYRYSVGWPVKNSAFGYWGQGTQVTVSS
- polyreactivity (PSR sort gate): low polyreactivity

Sequence: QVQLVESGGGLVQAGGSLRLSCAASGPTFAKNTMGWYRQAPGKERELVAAISWRGGRTYYADSVKGRFTISRDNAKNTVYLQMNSLKPEDTAVYYCAAASTIHRHGMDYWGQGTQVTVSS
- polyreactivity (PSR sort gate): high polyreactivity

Sequence: QVQLVESGGGLVQAGGSLRLICAASGRTYRLYAMGWYRQAPGKERELVAAISYSDGRTYYADSVKGRFTISRDNAKNTVYLQMNSLKPEDTALYYCAAETLYVSPYFYVVQYDYWGQGTQVTVSS
- polyreactivity (PSR sort gate): high polyreactivity

Sequence: QVQLVESGGGLVQAGGSLRVSCAASGFTFNYYAMGWYRQAAGKERELVAAISKDGTRTYYADSVKGRFTISRDNAKNTVYLQMNRQKPEDTAVYYCAAKASPAGSNYWGQGTQVTVSS
- polyreactivity (PSR sort gate): high polyreactivity

Sequence: QVQLVESGGGLVQAGGSLRLSCAASGFIFGHNTMGWYRPAPGKERELVAAIDGGGGTSYADSVKGRFTISRDNAKNTVYLQMNSLKPEDTAVYYCAAYVAKGPLEYYYHYPYDYWGQGTQVTVSS
- polyreactivity (PSR sort gate): low polyreactivity

Sequence: QVQLVESGGGLVQAGGSLRLSCAASGRTISRYAMGWYRQAPGKERELVATITSGGSTNYADSVKGRFTISRDNAKNTLYLQMNSLKPEDTAVYYCNAQSWYIVPYDYWGQGTQVTVSS
- polyreactivity (PSR sort gate): low polyreactivity

Sequence: QVQLVESGGGLVQAGGSLRLSCAASGFTFYGYAMGWYRPAPGKERELVAAISWSGGSTFYADSVKGRFTISRDNAKNTVYLQMNSQKAEDTAVDYCNAKVYPWGYYTSWRTVSPYDYWGQGTQVSVSS
- polyreactivity (PSR sort gate): high polyreactivity

Sequence: QVQLVESGGGLVQAGGSLRLSCAASVGIYSQNVRGWYRQAPGKEWELVAAISRRGGRTYYADSVKGRFKISRDNAKNTVYLQMNSLKPEDTAVYYCATLSPERRVYYTYSGLFEYWGQGTQVTVSS
- polyreactivity (PSR sort gate): high polyreactivity

Sequence: QVQLVESGGGLVQAGGSLRLSCAASGRIFGTNTMGWYRQAPGKERELVAGISSSGDSTYYADSVKGRFTISRDNAKNTVYLQMNSLKPEDTAVYYCAARKGEFWFPQGGYNYWGQGTQVTVSS
- polyreactivity (PSR sort gate): low polyreactivity

Sequence: QVQLVESGGGLVQAGGSLRLSSAASRRIFSEYAMGWNRPEPGKERELVAAISKSGGRTYYADSVKGRFTISRDNAKNTVYFQMNSLKPEETAVDYCNARAVYPAGYAYDYWGQGTQVTVSS
- polyreactivity (PSR sort gate): high polyreactivity

Sequence: QVQLVESGGGLVQAGGSLRLTCAASGSIFQRNAIGWYRQAPGKERELVAAITASGGRTYYADSVKGRFTISRDNAKNTVYLQMNSLKPEDTAVYYCAARGRTYCGGRTYDYWGHGTQVTVSS
- polyreactivity (PSR sort gate): high polyreactivity

Sequence: QVQLVESGGGLVQAGGSLRLSCAASGRIYKRNAMGWYRQAPGKERELVAAITGNVGSTYYADSVKGRFTISRDNAKNTVYLQMNSLKPEDTAVYYCAAETYPVWGVAFYYWGQGTQVTVSS
- polyreactivity (PSR sort gate): high polyreactivity

Sequence: QVQLVESGGGLVQAGGSLRLSCAASGLTLFRYAMGWYRQAPGKERELVAAIDYGGGTYYADSVKGRFTISRDNAKNTVYLQMNSLKPEDTAVYYCAVEPEYKYYEGDYWGQGTQVTVSS
- polyreactivity (PSR sort gate): low polyreactivity

Sequence: QVHLVESGGGLVQAGGSLRLSCAASGSTIYYNAMGRYRQAHGKERELVPRISRSGGSTYADSVKGRFTISRDNANNTVYLQMNSLKPEDTAVYYCNADPWWRFDYWGQGTQVTVSS
- polyreactivity (PSR sort gate): low polyreactivity

Sequence: QVQLVESGGGLVQAGGSLRLSCAASGIIFQYYAMGWYRQAPGKERELVAAISWSGGSTYYADSVKGRFTISRDNAKNTVYLQMNSLKPEDTAVYYCAARSRSYWPYEGDYWGQGTQVTVSS
- polyreactivity (PSR sort gate): low polyreactivity

Sequence: QDQHVESGGGLVQAGGSLPLSCADSGSIFPRNAMGWYRQAPGKERELVAAISRIGGSTYYADAVKGRFTISRDNAKNTVYLQMNSLKPEDTAVYYCAAPPSEWQHDYWGQGTQVTVSS
- polyreactivity (PSR sort gate): low polyreactivity

Sequence: QVQLVESGGGLVQAGGSLRLSCAASGSIFGYYVMGWDRQAPGKERELVAAITRSGSTYYADSVKGRFTISRDNAKNTVYLQMNSLKPEDTAVYYCAADGSYYWYPHTTYDYWGQGTQVTVSS
- polyreactivity (PSR sort gate): low polyreactivity

Sequence: QVQHVESGGGLVQARGSLRLRCAASGFIFRANAMGWYRHAPGKERELVATISRSGGSTSYADSVKGLFTISRDNAKNTVYLQMNSLKPEDSAVYYCAARKYTLRRKSRYGYWGQGTQVTVSS
- polyreactivity (PSR sort gate): high polyreactivity

Sequence: HVQLQESGGGLVQAGGSLRLSCAASGNISYSRNMGWYRQAPGKERELVAAIDRGAITYYADSVKGRFTISRDNAKNTVYLQRYSLKPEDTAVYYCAAEYHDRWDHRYWGQGTQVTVSS
- polyreactivity (PSR sort gate): high polyreactivity

Sequence: QVQLGESGGGLVQAGGSLRLSCAASGSIFTGNAMGWYRQAPGKERELVAAITNGGITNYADSVKRRFTISRDNAKNTFYLQMNSLKPEDTAVYYCAADYVDFYSFRRFDYWGQGSQVTVSS
- polyreactivity (PSR sort gate): low polyreactivity

Sequence: QVQLVESVGGLVQAGGSLRLSCAASGFTFRANAMGWYRQAPGKERELVAAINWSGTSTYYADSVKGRFTISRDNAKNTVYLQMNSLKPEDTAVYYCAVLFYGAKYDYWGQGTQVTVSS
- polyreactivity (PSR sort gate): low polyreactivity

Sequence: QVQLVESGGGLVQAGGSLRLSCAASGSTFNLYAMGWYRQAPGKERELVASISRSGVSTYYADSVKGRFTISRDNAKNTVYLQMNRLKPEDTAVYYCAVDKVLYRLYPGMDYWGQGTQVTVSS
- polyreactivity (PSR sort gate): low polyreactivity

Sequence: QVQLVESGGGLVQAGGSLRLSCAASGRIFTVNAMGGYRQAPGKERELVAAITFSGANTYYADSVKGRFTISRDNAKNTVFLQMNSLKPEDTAVYYCAGDPPNGAEYYWGQGTQVTVSS
- polyreactivity (PSR sort gate): high polyreactivity
